Measurements: article PMC3001195 (Structure (London, England : 1993), 2010)

Tests used:
[1] = molecular target: the molecule itself; test: negative-stain electron microscopy
crystal structure = molecular target: the molecule itself; test: crystal structure
SEC = molecular target: the molecule itself; test: SEC

B1: NtrC1^C,WT, central (AAA+ ATPase) domain of NtrC1 of Aquifex aeolicus (domain or fragment)
chain: RKENELLRREKDLKEEEYVFESPKMKEILEKIKKISCAECPVLITGESGVGKEVVARLIHKLSDRSKEPFVALNVASIPRDIFEAELFGYEKGAFTGAVSSKEGFFELADGGTLFLDEIGELSLEAQAKLLRVIESGKFYRLGGRKEIEVNVRILAATNRNIKELVKEGKFREDLYYRLGVIEIEIPPLRERKEDIIPLANHFLKKFSRKYAKEVEGFTKSAQELLLSYPWYGNVRELKNVIERAVLFSEGKFIDRGELSCLVNSK
stoichiometry N [1]: 7

B2: NtrC1^C,E239A, Walker-B variant of the central domain of NtrC1 of Aquifex aeolicus (domain or fragment)
chain: RKENELLRREKDLKEEEYVFESPKMKEILEKIKKISCAECPVLITGESGVGKEVVARLIHKLSDRSKEPFVALNVASIPRDIFEAELFGYEKGAFTGAVSSKEGFFELADGGTLFLDAIGELSLEAQAKLLRVIESGKFYRLGGRKEIEVNVRILAATNRNIKELVKEGKFREDLYYRLGVIEIEIPPLRERKEDIIPLANHFLKKFSRKYAKEVEGFTKSAQELLLSYPWYGNVRELKNVIERAVLFSEGKFIDRGELSCLVNSK
stoichiometry N (crystal structure): 7

B3: NtrC1^C,R293A (domain or fragment, Aquifex aeolicus)
chain: RKENELLRREKDLKEEEYVFESPKMKEILEKIKKISCAECPVLITGESGVGKEVVARLIHKLSDRSKEPFVALNVASIPRDIFEAELFGYEKGAFTGAVSSKEGFFELADGGTLFLDEIGELSLEAQAKLLRVIESGKFYRLGGRKEIEVNVRILAATNRNIKELVKEGKFAEDLYYRLGVIEIEIPPLRERKEDIIPLANHFLKKFSRKYAKEVEGFTKSAQELLLSYPWYGNVRELKNVIERAVLFSEGKFIDRGELSCLVNSK
binding result (SEC): binds
